The results in this text go back to patent publication US20200079854A1 (Johns Hopkins, published 2020).

Assay [1] concerns the target T1, IDH2 wt(134-143) peptide … with HLA-B7 and b2M on cells (human).
T1 construct: peptide-pulsed RPMI-6666 cells in flow cytometry
As to the kind of experiment: flow cytometry, phage-displayed scFv on peptide-pulsed RPMI-6666 cells (FIG. 3).
Procedure: (§1) Cells were stained with 10 μL of precipitated phage per 100 μL of cells, washed and stained with rabbit anti-M13 antibody, then washed and stained with anti-Rabbit-PE antibody. Cells were stained with a live/dead Near-IR dye, washed, and analyzed by an LSRII flow cytometer.
(§2) The pulsed cells were pelleted, washed once in cold stain buffer (PBS containing 0.5% BSA, 2 mM EDTA, and 0.1% sodium azide), and resuspended in 100 μL of stain buffer. Phage staining was performed on ice with 10 uL (approximately 1×10⁹) phage for 1 hour in 100 uL total volume, followed by one 4 mL wash in cold stain buffer. Cells were then stained with 1 uL of rabbit anti-M13 antibody (Pierce, Rockford, Ill.) in 100 uL total volume on ice for 1 hour and washed once with 4 mL of cold stain buffer. Cells were stained with anti-rabbit-PE (Biolegend) on ice for 1 hour in 100 uL total volume, followed by incubation with LIVE/DEAD Fixable Near-IR Dead Cell Stain (Thermo Fisher) for 10 min at room temperature per manufacturer's instructions. Cells were washed once in 4 mL of stain buffer followed by resuspension in 300 uL of stain buffer before analysis. Stained cells were analyzed using an LSRII flow cytometer (Becton Dickinson, Mansfield, Mass.).

For assay [2], the target named is control 3 peptide (…, a different peptide from wt IDH2) HLA-B7 biotinylated monomer (biotinylated (site not given)). In words: phage ELISA on monomer-coated streptavidin plate (FIG. 1). On the technique in general: An ELISA detects its analyte on a solid surface through an enzyme-linked reagent.
Assay [3] deals with control 1 peptide (…, artificial sequence) HLA-B7 biotinylated monomer (biotinylated (site not given)). The description is as above.
Assay [4] has as its target T2, IDH2 wt peptide (…) HLA-B7 biotinylated monomer (biotinylated (site not given)).
T2 construct: also called wt version of the peptide of interest in complex with the same HLA allele
The description is as above.

Assay [5] addresses T3, KRAS wt(7-16) peptide … with HLA-A11 and b2M on peptide-pulsed Hs611.T cells (human). In words: flow cytometry, phage-displayed scFv on peptide-pulsed Hs611.T cells (FIG. 11). On the technique in general: Flow cytometry measures light scatter and fluorescence of single cells or particles in a stream.
Procedure: as §1, §2
The target of assay [6] is T3, KRAS wt(7-16) peptide … with HLA-A11 …. As to the kind of experiment: flow cytometry, phage-displayed scFv on peptide-pulsed Hs611.T cells (FIG. 9).
Procedure: Cells were stained with 10 of precipitated phage per 100 μL of cells, washed and stained with rabbit anti-M13 antibody, then washed and stained with anti-Rabbit-PE antibody. Cells were stained with a live/dead Near-IR dye, washed, and analyzed by an LSRII flow cytometer.
as §2

B1: IDH2_R140Q_B7_c13 (scFv)
scFv: DIQMTQSPSSLSASVGDRVTITCRASQDVNTAVAWYQQKPGKAPKLLIYSASFLYSGVPSRFSGSRSGTDFTLTISSLQPEDFATYYCQQYSLYSPMTFGQGTKVEIKRTGGGSGGGGSGGGASEVQLVESGGGLVQPGGSLRLSCAASGFNSFLSIHWVRQAPGKGLEWVAHIFPSSDYTSYADSVKGRFTISADTSKNTAYLQMNSLRAEDTAVYYCSRGKHSSDSNYYMDYWGQGTLVTVSS
notes: also called IDH2 R140Q(134-143)-B7 c1.3
For the molecule B1, the binding result in assay [1], in assay [2], in assay [3] and in assay [4] was “no binding” in each case.

B2: KRAS_G12V_A11_V3 (scFv)
scFv: DIQMTQSPSSLSASVGDRVTITCRASQDVNTAVAWYQQKPGKAPKLLIYSASFLYSGVPSRFSGSRSGTDFTLTISSLQPEDFATYYCQQSSYTPITFGQGTKVEIKRTGGGSGGGGSGGGASEVQLVESGGGLVQPGGSLRLSCAASGFNISQGGIHWVRQAPGKGLEWVAYVYPGGGQTNYADSVKGRFTISADTSKNTAYLQMNSLRAEDTAVYYCSRGYDYSAFDYWGQGTLVTVSS
For B2, in assay [5], the binding result is listed as “no binding”.

B3: KRAS_G12V_A11_V23 (scFv)
scFv: DIQMTQSPSSLSASVGDRVTITCRASQDVNTAVAWYQQKPGKAPKLLIYSASFLYSGVPSRFSGSRSGTDFTLTISSLQPEDFATYYCQQYSYYPITFGQGTKVEIKRTGGGSGGGGSGGGASEVQLVESGGGLVQPGGSLRLSCAASGFNLSTHVMHWVRQAPGKGLEWVAEFYPYVGYTYYADSVKGRFTISADTSKNTAYLQMNSLRAEDTAVYYCSRGYRYQYMDVWGQGTLVTVSS
On to B3, for which the binding result in assay [5] is listed as “no binding”.

B4: IDH2_R140Q_B7_c11 (scFv)
scFv: DIQMTQSPSSLSASVGDRVTITCRASQDVNTAVAWYQQKPGKAPKLLIYSASFLYSGVPSRFSGSRSGTDFTLTISSLQPEDFATYYCQQVYSSPFTFGQGTKVEIKRTGGGSGGGGSGGGASEVQLVESGGGLVQPGGSLRLSCAASGFNVKYYMMHWVRQAPGKGLEWVAAISPGYDYTYYADSVKGRFTISADTSKNTAYLQMNSLRAEDTAVYYCSRSYWRYSVDVWGQGTLVTVSS
notes: also called IDH2 R140Q(134-143)-B7 c1.1
For the molecule B4, the binding result in assay [1], in assay [2], in assay [3] and in assay [4] was “no binding” each time.

B5: IDH2_R140Q_B7_D4 (scFv)
scFv: DIQMTQSPSSLSASVGDRVTITCRASQDVNTAVAWYQQKPGKAPKLLIYSASFLYSGVPSRFSGSRSGTDFTLTISSLQPEDFATYYCQQYSYSPPTFGQGTKVEIKRTGGGSGGGGSGGGASEVQLVESGGGLVQPGGSLRLSCAASGFNISDTYIHWVRQAPGKGLEWVASISPRTGYNRYADSVKGRFTISADTSKNTAYLQMNSLRAEDTAVYYCSRAYYSYAYAMDVWGQGTLVTVSS
As for B5, the binding result in assay [1], in assay [2], in assay [3] and in assay [4] was “no binding” each time.

B6: KRAS_G12V_A11V10 (scFv)
scFv: DIQMTQSPSSLSASVGDRVTITCRASQDVNTAVAWYQQKPGKAPKLLIYSASFLYSGVPSRFSGSRSGTDFTLTISSLQPEDFATYYCQQYEYYPITFGQGTKVEIKRTGGGSGGGGSGGGASEVQLVESGGGLVQPGGSLRLSCAASGFNFFSTVIHWVRQAPGKGLEWVAEIYPWSGSTYYADSVKGRFTISADTSKNTAYLQMNSLRAEDTAVYYCSRSRSSNYYFDVWGQGTLVTVSS
Take B6: the binding result in assay [5] is recorded as “no binding”.

B7: KRAS_G12_VA11_V9 (scFv)
scFv: DIQMTQSPSSLSASVGDRVTITCRASQDVNTAVAWYQQKPGKAPKLLIYSASFLYSGVPSRFSGSRSGTDFTLTISSLQPEDFATYYCQQYAYYPITFGQGTKVEIKRTGGGSGGGGSGGGASEVQLVESGGGLVQPGGSLRLSCAASGFNISSTGMHWVRQAPGKGLEWVAELLGGSGNTNYADSVKGRFTISADTSKNTAYLQMNSLRAEDTAVYYCSRGLQYSAMDYWGQGTLVTVSS
Turning to B7, the binding result in assay [5] was “no binding”.

B8: KRAS_G12V_A11_V24 (scFv)
scFv: DIQMTQSPSSLSASVGDRVTITCRASQDVNTAVAWYQQKPGKAPKLLIYSASFLYSGVPSRFSGSRSGTDFTLTISSLQPEDFATYYCQQSSVEPWTFGQGTKVEIKRTGGGSGGGGSGGGASEVQLVESGGGLVQPGGSLRLSCAASGFNVSYYSIHWVRQAPGKGLEWVAYIYPWNDYTYYADSVKGRFTISADTSKNTAYLQMNSLRAEDTAVYYCSRGSYYSFDYWGQGTLVTVSS
On to B8, for which, in assay [5], the binding result is on record as “no binding”.

B9: KRAS_G12V_A11_V21 (scFv)
scFv: DIQMTQSPSSLSASVGDRVTITCRASQDVNTAVAWYQQKPGKAPKLLIYSASFLYSGVPSRFSGSRSGTDFTLTISSLQPEDFATYYCQQYTYYPITFGQGTKVEIKRTGGGSGGGGSGGGASEVQLVESGGGLVQPGGSLRLSCAASGFNLHGYLMHWVRQAPGKGLEWVAFIYPPNGYTYYADSVKGRFTISADTSKNTAYLQMNSLRAEDTAVYYCSRGVDYAYLDYWGQGTLVTVSS
Consider B9, for which the binding result in assay [5] is recorded as “no binding”.

B10: KRAS_G12D_A11_D3 (scFv)
scFv: DIQMTQSPSSLSASVGDRVTITCRASQDVNTAVAWYQQKPGKAPKLLIYSASFLYSGVPSRFSGSRSGTDFTLTISSLQPEDFATYYCQQYSYYPITFGQGTKVEIKRTGGGSGGGGSGGGASEVQLVESGGGLVQPGGSLRLSCAASGFNFSYGYMHWVRQAPGKGLEWVAWISGYTGNTYYADSVKGRFTISADTSKNTAYLQMNSLRAEDTAVYYCSRAASLSSSYYSAFDVWGQGTLVTVSS
With B10, the binding result in assay [6] was “no binding”.

B11: KRAS_G12D_A11_D14 (scFv)
scFv: DIQMTQSPSSLSASVGDRVTITCRASQDVNTAVAWYQQKPGKAPKLLIYSASFLYSGVPSRFSGSRSGTDFTLTISSLQPEDFATYYCQQYSYTPVTFGQGTKVEIKRTGGGSGGGGSGGGASEVQLVESGGGLVQPGGSLRLSCAASGFNVWGPGMHWVRQAPGKGLEWVARIHPFSGNTYYADSVKGRFTISADTSKNTAYLQMNSLRAEDTAVYYCSRGYSYSAMDYWGQGTLVTVSS
With B11, the binding result in assay [6] was “no binding”.

B12: IDH2_R140Q_B7_c129 (scFv)
scFv: DIQMTQSPSSLSASVGDRVTITCRASQDVNTAVAWYQQKPGKAPKLLIYSASFLYSGVPSRFSGSRSGTDFTLTISSLQPEDFATYYCQQGKAYWPATFGQGTKVEIKRTGGGSGGGGSGGGASEVQLVESGGGLVQPGGSLRLSCAASGFNVGHYRMHWVRQAPGKGLEWVAMVSPNGYYTYYADSVKGRFTISADTSKNTAYLQMNSLRAEDTAVYYCSRGYSSYAFDYWGQGTLVTVSS
notes: also called IDH2 R140Q(134-143)-B7 c1.29
Consider B12, for which the binding result in assay [1], in assay [2], in assay [3] and in assay [4] was “no binding” each time.

B13: IDH2_R140Q_B7_c18 (scFv)
scFv: DIQMTQSPSSLSASVGDRVTITCRASQDVNTAVAWYQQKPGKAPKLLIYSASFLYSGVPSRFSGSRSGTDFTLTISSLQPEDFATYYCQQSYYMPFTFGQGTKVEIKRTGGGSGGGGSGGGASEVQLVESGGGLVQPGGSLRLSCAASGFNIFRGYMHWVRQAPGKGLEWVAMISPHSDYTSYADSVKGRFTISADTSKNTAYLQMNSLRAEDTAVYYCSRSYGWAAFDYWGQGTLVTVSS
For B13, the binding result in assay [1], in assay [2], in assay [3] and in assay [4] was “no binding” each time.
